This note sets out measurements from the nanobody polyreactivity screen of Harvey et al. (2022).

The nature of this data set: yeast display, Sf9 membrane polyspecificity reagent, FACS + sequencing; frameworks hold sequencing errors. The gist of the method: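 Genes from sorted yeast were amplified by colony PCR, read by MiSeq 2 × 250 sequencing and filtered on CDR length. These cells carried a synthetic nanobody library in Saccharomyces cerevisiae BJ5465 and were sorted by FACS into low and high (top ~1%) gates on anti-HA and streptavidin fluorescence. Polyreactivity is labelled according to the gate of origin.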
Regarding “QVQLVESGGGLVQAGGSLRLSCAASGSILKGYALGWYRQAPGKERELVAAITSSGGRTYYADSVKGRFTISRDNAKNTVYLQMNSLKPEDTAVYYCNALGGQWARYDYWGQGTQVTVSS”, the “polyreactivity (PSR sort gate)” value is “high polyreactivity”. The entry for “QVQLVESGGGLVQAGGSLRLSCAASGSILLAYVMGWYRPAPGKERELVAAISSGDDTKYADSVKGRFTISRDNAMNTVYLQMNSLKPEDTAVYYCNAYTLDYPYHRFGYWGQGTQVTVSS” is “low polyreactivity”; for “QVQLVESGGGLVQAGGSLRLSCAASGSILLVYAMGWYRQAPGKERELVATITWTDGSTYYADSVKGRFTISRDNAKNTVYLQMNSLKPEDTAVYYCNAGASVNSPLVAEYYYWGQGTQVTVSS” it is “low polyreactivity”; for “QVQLVESGGGLVQAGGSLRLSCAASGSILLYYSMGWYIQAPGKERELVARISITRDSTYYADSVKGRFTISRDNAKNTVYLQMYSLNPEDTAVYFCAADPVLHYYPSYYTGALDYYWGQGTQVTVSS” it is “low polyreactivity”. Regarding “QVQLVESGGGLVQAGGSLRLSCAASGSILNNYAMGWYRQAPGKERELVAAISSSGGTNYADSVKGRFTISRDNAKYTVYLQMNSLKPEDTAVYYCNADVLDGGYDYWGQGTQVTVSS”, the “polyreactivity (PSR sort gate)” value is “low polyreactivity”. As to “QVQLVESGGGLVQAGGSLRLSCAASGSILPLYAMGWYRQAPGKERELVATISNAGSTTYADSVKGRFTISRDNAKNTVYLQMNSLKPEDTAVYYCNAESEWGWVYVGYDYWGQGTQVTVSS”, the “polyreactivity (PSR sort gate)” value is given as “low polyreactivity”. For “QVQLVESGGGLVQAGGSLRLSCAASGSILPTNAMGWYRQAPGKERELGASITRSGGSTYYADSVKGRFTISRDNAKNTVYLQMNSLKPEDTAVYYCNARGFTRYTVGRNYWGQGTQVTVSS”, the “polyreactivity (PSR sort gate)” value is “high polyreactivity”. Then “QVQLVESGGGLVQAGGSLRLSCAASGSILQDYTMGWYRQAPGKERELVAAITWNGGSTYYADSVKGRFTISRDNEKNTVYLHMTSLKPEHTAVYYCAAYCRVVPSFYYWGQGTQVTVSS”, with “low polyreactivity”. In the case of “QVQLVESGGGLVQAGGSLRLSCAASGSILRDYAMGWYRQAPGKERELVAAITTSGAITYYADSVKGRFTISRDNAKNTVYLQMNSLKTEDTAVYYCNAKYVRWYGKYNYWGQGTQVTVSS”, the “polyreactivity (PSR sort gate)” value is given as “high polyreactivity”. As to “QVQLVESGGGLVQAGGSLRLSCAASGSILRFNSMGWYRQAPGKERELVATITKGGGRTNYADSVKGRFTISRDNAKKTVYLQMNSLKPQDTSVYYCAEKFIYARYGTFQTDYKIYDYWGQGTQVTVSA”, the “polyreactivity (PSR sort gate)” value was “high polyreactivity”. The entry for “QVQLVESGGGLVQAGGSLRLSCAASGSILRIYAMGWYSQAPGKEMELVARITWSGGRTYYADSVKGRFTISRDNAKNTVYLQMNSLKPEDTAVYDCNADLQRWGWEYDYWGQGTQVTVSS” is “high polyreactivity”; for “QVQLVESGGGLVQAGGSLRLSCAASGSILRLYAMGWYRQAPGNERDLVAAITYRGGRTDYADSVKGRFTISRDTAKNTVYLQLNSLKPEDTAVFYCAAGYLPSPRYSTSYLYYYWGQGTQVTVSS” it is “high polyreactivity”; for “QVQLVESGGGLVQAGGSLRLSCAASGSILRYNAMGWYSQARAKEREWVASISRGGGTNYAYSVKGRFTISRDNAKNTVYLQINSLKQEDTAVYYCAALTLRVDYDSQWYSLVDYWGQGTEVTVSS” it is “low polyreactivity”.

As for “QVQLVESGGGLVQAGGSLRLSCAASGSILSKNAMGWYRQAPGKERELVAAITWSGGSTYYADSVKGRFTISRDNAKNTVYLQMNSLKPEDTAVYYCAADLDWSPHFGLPYDYWGQGTQVTVSS”, the “polyreactivity (PSR sort gate)” value is “low polyreactivity”. Then “QVQLVESGGGLVQAGGSLRLSCAASGSILSTNDMGWYRQAPGKERELVAGISSGGSTNYADSVKGRFTISRDNAKNTVYLQMNSQKPEDTAVYYCATDVDKDPAEMDYWGQGTQVTVSS”, with “low polyreactivity”. The entry for “QVQLVESGGGLVQAGGSLRLSCAASGSILSTYAKGWYRQAPGKERELVASISSNAGSTYYADSVKGRFTISRDNAKNTVYLQMNSLKPEDTAVYYCNKVYGGGTYDYWGQGTQVTVSS” is “low polyreactivity”; for “QVQLVESGGGLVQAGGSLRLSCAASGSILSTYAMGWYRQAPGKERELVASISSNAGSTYYADSVKGRFTISRDNAKNTVYLQMNSLKPEDTAVYYCNKDGKYHRVLYDYWGQGTQVTVSS” it is “low polyreactivity”; for “QVQLVESGGGLVQAGGSLRLSCAASGSILSYYAMGWYRQAPGKERELVAAISKSGGRTYYADSVKGRFTISRDNAKNTVYLQMNSLKPEETAVYYCAAEIVVFYSEGQRNTFYYWGQGTQVTVSS” it is “high polyreactivity”. The entry for “QVQLVESGGGLVQAGGSLRLSCAASGSILSYYAMGWYRQAPGKERELVAAISKTGGRTYYADSVKGRFTISRDNAKNTVYLQMNSLKPEDTAVYYCAAVDTIGRYDYWGQGTQVTVSS” is “high polyreactivity”. In the case of “QVQLVESGGGLVQAGGSLRLSCAASGSILTAYAMGWYRQAPGKERELVAASNFSGDNTYYADSEKGRFTISRDNAKNTVYLQMNSLKPEDTAVYYCNADGRYAYVWYDYWGQGTQVTVSS”, the “polyreactivity (PSR sort gate)” value is “low polyreactivity”.

In the case of “QVQLVESGGGLVQAGGSLRLSCAASGSILVAYAMGWYRQAPGKERELVAAISSVGNTYYADSVKGRFTISRDNAKNTVYLQMNSLIPEDTAVYYCNAVYRVWYAEWSTVGSPHDYWGQGTQVTVSS”, the “polyreactivity (PSR sort gate)” value is listed as “low polyreactivity”. Then “QVQLVESGGGLVQAGGSLRLSCAASGSILVAYAMGWYRQAPGKERELVAAITQGGGSTYYADSVKGRFTISRDNAKNTVYLQMNSLKPEDTAVYYCNVGANVYLLYFPSRGGVYDYGYWGKGTQVTVSS”, with “low polyreactivity”; and “QVQLVESGGGLVQAGGSLRLSCAASGSILVGNAMGWYRQAPGKERELVAAISKSGSSTHYADSVKGRFTISRDNAKNTVYLQMNSLKPEDTAVYYCNAVGRVYRAKYDYWGQGTQVTVSS”, with “high polyreactivity”; and “QVQLVESGGGLVQAGGSLRLSCAASGSILYFYAMGWYRQAPGKEREFVAAISRSGGSTRYADSVKGRFTISRDNAKNTVYLQMNSLKPEDTAVYYCAATSRSYNDYDYWGQGTQVTVSS”, with “high polyreactivity”. The entry for “QVQLVESGGGLVQAGGSLRLSCAASGSILYGNAMGWYRQAPGKERELVAAITTSGGRTYYADSVKGRFTISRDNAKNTVYLQLTSLKPEDTAVYYCAAASPTPVNWSGRDYYYWGQGTQVTVSS” is “high polyreactivity”; for “QVQLVESGGGLVQAGGSLRLSCAASGSILYINAMGWYRQAPGKERELVAAITYSGGSTYYADSVKGRFTISRDNAKNTVYLQMNSLKPEDTAVYYWAADAVVAGRYDGHDYWGQGTQVTVSS” it is “low polyreactivity”. Regarding “QVQLVESGGGLVQAGGSLRLSCAASGSILYRYAMGWYRQAPGKERELVAAITRSGGSTYYADSVKGRFTISRDNAKNTVYLQMNSLKPEDTAVYYCARQRKVSAHSIEMDYWGQGTQVTVSS”, the “polyreactivity (PSR sort gate)” value is given as “low polyreactivity”. With “QVQLVESGGGLVQAGGSLRLSCAASGSILYRYAMGWYRQAPGKERELVAAITRSGGSTYYADSVKGRFTITRDNAKNTVYFQMNSLKPEDTAGYYCARQRKVSAHSIEMDYWGQGTQVTVSS”, the “polyreactivity (PSR sort gate)” value was “low polyreactivity”. As for “QVQLVESGGGLVQAGGSLRLSCAASGSILYTNAMGWYRQAPGKERELVAAITTSGASTYYADSVKGRFTISRDNAKNTVYLQMNSLKPEDTAVYYCAAPSRYRYYWGNYWGQGTQVTVSS”, the “polyreactivity (PSR sort gate)” value is recorded as “high polyreactivity”.

On to “QVQLVESGGGLVQAGGSLRLSCAASGSILYVYAMGWYRQAPGKERELVAAISNRDGSTYYADSVKGRFTISRDNAKNTVYLQMNSLKPEDTAVYYCNADGYGDYSFLKYRFEYDYWGQGTQVTVSS”, for which the “polyreactivity (PSR sort gate)” value is “low polyreactivity”. Then “QVQLVESGGGLVQAGGSLRLSCAASGSILYVYAMGWYRQAPGKERELVAVITSGGSTNYADSVKGRFTISRDNAKNTVYLQMHSLKPEDSAVYHCAAYYDYDWKYAPSFDYGYWGQGTQVTVSS”, with “low polyreactivity”. Then “QVQLVESGGGLVQAGGSLRLSCAASGSILYYYTMGWYRQAPGKERELVAAINTSGGITYYADSVKGRFTISRDNAKNTVYLQMNSLKPEDTAVYYCAAEGPEIKYYYWGQGTQVTVSL”, with “low polyreactivity”. Take “QVQLVESGGGLVQAGGSLRLSCAASGSIMVRYAMGWYRQAPGKERELVAAITSGGSTYADSVKGRFTISRDNAKNTVYLQMNSLKPEDTAVYYCARDYFNREAFDYWGQGTQVTVSS”: the “polyreactivity (PSR sort gate)” value is given as “low polyreactivity”. Turning to “QVQLVESGGGLVQAGGSLRLSCAASGSIMYVYAMGWYRQAPGKERELVAVITSGGSTNYAESVKGRFTISRDNAKNTVFLQMNSLKPEDTAVYYCAADPYSVYGGDYWGQGTQVTVSS”, the “polyreactivity (PSR sort gate)” value is given as “low polyreactivity”.

As for “QVQLVESGGGLVQAGGSLRLSCAASGSINELYAKGWYRQAPGKERELVASITWRGGSTYYADSVKGRFTISRDNAKNTVYLQMNSLKPEDTAVYDCAADVPTASGTYDYWGQGTQVTVSS”, the “polyreactivity (PSR sort gate)” value is given as “low polyreactivity”. The entry for “QVQLVESGGGLVQAGGSLRLSCAASGSINYYAMGWYRQAPGKERELVAAITGSGGSTYYADSVKGRFTISRDNAKNTVYLQMNSLITEDTSVYYCAARYGYIYGPYYYWGQGTQVTVST” is “high polyreactivity”; for “QVQLVESGGGLVQAGGSLRLSCAASGSINYYAMGWYRQAPGKERELVAAITGSGGSTYYADSVKGRFTISRDNAKNTVYLQMNSLKPEDTAVYYCAARYGYIYGPYYYWGQGTQVTVSS” it is “high polyreactivity”. With “QVQLVESGGGLVQAGGSLRLSCAASGSIQVYYAMGWYRQAPGKERELVAAISSGGSTNYADSVKGRFTISRDNAKNTVYLQMNSLKPEDTAVYYCAKESGWVGAIHYDYWGQGTQVTVSS”, the “polyreactivity (PSR sort gate)” value is recorded as “low polyreactivity”.

Turning to “QVQLVESGGGLVQAGGSLRLSCAASGSIRGYAMGWYRQAPGKERELVAAISWRGGSTYYADSVKGRFTISRDNAKNTVYLQMNSLKPEDTAVYYCAAADGIIESDYWGQGTQVTVSS”, the “polyreactivity (PSR sort gate)” value was “low polyreactivity”. Then “QVQLVESGGGLVQAGGSLRLSCAASGSIRYYVMGWYRQAPGKERELVAGINWSGGSTYYADSVKGRFTISRDNAKNTVYLQMNSLKPEDTAVYYCAARFVGVRDGYYYWGQGTQVTVSS”, with “high polyreactivity”.
